Kd data for three substances are collected here from article PMC12046042.

Among the targets are FcγRIIIa-158F; FcγRIIIa-158V; FcγRIIa-131H; FcγRIIa-131R; FcγRIIb.
Test in all cases: SPR
The target of experiment [1] is FcγRI (CD64) extracellular domain (UniProt P12314).
Chain of FcγRI (CD64) extracellular domain (P12314 16-292): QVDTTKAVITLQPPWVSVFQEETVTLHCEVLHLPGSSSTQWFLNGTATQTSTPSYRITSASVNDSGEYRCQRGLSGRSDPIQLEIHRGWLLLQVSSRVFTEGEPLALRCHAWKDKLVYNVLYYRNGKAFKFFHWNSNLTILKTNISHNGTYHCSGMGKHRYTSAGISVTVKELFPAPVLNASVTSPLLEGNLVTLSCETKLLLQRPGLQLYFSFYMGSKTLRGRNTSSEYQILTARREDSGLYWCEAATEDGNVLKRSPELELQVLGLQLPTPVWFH

With Hu IgG1, the Kd in experiment [1] came to 0.0643 nM; in the experiment with FcγRIIIa-158F, 1400 nM; with FcγRIIIa-158V it was 200 nM; in the experiment with FcγRIIa-131H it was 600 nM; with FcγRIIa-131R it was 800 nM; with FcγRIIb, 4400 nM.
On to Hu IgG4P, for which the Kd in experiment [1] was determined as 0.472 nM; in the experiment with FcγRIIIa-158F, 10000 nM; with FcγRIIIa-158V, 3100 nM; in the experiment with FcγRIIa-131H it was 4100 nM; in the experiment with FcγRIIa-131R it was 1600 nM; in the experiment with FcγRIIb it was 1600 nM.
On to Hu IgG4PAA, for which the Kd in experiment [1] is > 200 nM; with FcγRIIIa-158F, > 10000 nM; with FcγRIIIa-158V, 8900 nM; in the experiment with FcγRIIa-131H it was > 10000 nM; with FcγRIIa-131R, > 10000 nM; with FcγRIIb it was > 10000 nM.
